Here are results for one molecule from patent publication US20260210971A1 (Pfizer, published 2026).

The target of this test is T1, recombinant soluble human TL1A (human, UniProt O95150 71-251).
T1 construct: Homotrimer, expressed in HEK293 and purified over HitrapNTA; no tag is described; Used biotinylated in the HTRF assay and in flow cytometry; also called rsTL1A; hTL1A
T1 sequence: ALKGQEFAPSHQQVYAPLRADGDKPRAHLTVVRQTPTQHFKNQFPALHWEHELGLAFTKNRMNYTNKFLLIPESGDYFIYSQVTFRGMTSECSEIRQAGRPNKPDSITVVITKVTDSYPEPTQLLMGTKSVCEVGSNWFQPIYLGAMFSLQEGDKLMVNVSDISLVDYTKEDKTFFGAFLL
Description: plate ELISA, TL1A coated, antibody titrated; plate of TNFSF14. On the technique in general: ELISA stands for enzyme-linked immunosorbent assay.
Description: The first 6 rows of each plate were coated with the test article cytokine, and the last two rows were coated with TL1A as a positive control. Rows 1 and 2 were duplicate rows where the test article cytokine was tested for binding to increasing concentrations of its corresponding anti-cytokine positive control antibody. […] The experiment for each cytokine was repeated three times.
Plates were incubated overnight at 4° C. After washing the plates three times (3×) with 300 μL PBST using a plate washer (model ELx405; BioTek), plates were blocked by incubating for 1 hour at room temperature with 300 μL of blocking buffer (PBST+0.5% BSA) in each well. […] Plates were then washed 5 times with PBST using the plate washer.

B1: 1D1 1.31 (antibody, human IgG1, kappa, V domains shown)
VH: QVQLVQSGAEVKKPGASVKVSCKASGYDFTYYGISWVRQAPGQGLEWMGWISTYNGNTHYARMLQGRVTMTTDTSTRTAYMELRSLRSDDTAVYYCARENYYGSGAYRGGMDVWGQGTTVTVSS
VL: EIVLTQSPATLSLSPGERATLSCRASQSVSSYLAWYQQKPGQAPRLLIYDASNRATGIPARFSGSGSGTDFTLTISSLEPEDFAVYYCQQRSNWPWTFGQGTKVEIKR
notes: Full length human IgG1 with effector function-null mutations in the Fc, produced in CHO cells; Used biotinylated for staining of monocytes
Usually EC50 stands for the concentration that produces a half-maximal response. Regarding B1, the EC50 was 0.0084 ng/mL.
